The results in this text go back to patent CN113461812A (BEIJING LUFEI BIOTECHNOLOGY CO LTD, dated 2021).

Experiment [1] deals with T1, 新型冠状病毒RBD蛋白 (野生型) (SARS-CoV-2, UniProt P0DTC2 319-541).
T1 construct: domain: RBD; also called WT; 新冠病毒RBD蛋白野生型
The experiment in a line: SPR (Biacore), 1:1 binding fit. (In SPR one partner is held on a chip, and binding of the other changes the refractive index at the surface.)

In experiment [2] the target is 新型冠状病毒(假病毒) S蛋白 (SARS-CoV-2, UniProt P0DTC2 14-1273). In words: cell-based or functional assay.

B1: 人源化新冠病毒中和性抗体nCoV-00D (antibody, V domains shown)
VH: QVQLQQSGAELVKPGASVKLSCKTSGYTFTRYYIYWVKQRPGQGLEWIGEINPNNGGTNFNEKFKSKATLTVDKSSNTAYMQLSSLTSEDSAVYYCTIFITTVIARDYWGQGTLVTVSA
VL: DIVLTQSPASLAVSLGQRATISCRASESVEYSGTTLMQWFQQKPGQPPKLLIYAASNVESGVPARFSGSGSGTDFSLNIHPVEEDDVAMYFCHQSREVPWTFGGGTKLEIKR
notes: also called nCoV-00D抗体
The term Kd denotes the free concentration of one partner at which half of the binding sites on the other are occupied at equilibrium, for simple one-to-one binding. Higher therefore signals a looser complex. The term koff denotes the rate constant with which the complex falls apart. Broadly, the kon is a measure of how fast the partners come together. A lower kon goes with slow association. In experiment [1], B1 yielded a Kd of 0.532 nM, a koff of 0.000133 s⁻¹ and a kon of 251000 M⁻¹ s⁻¹. In experiment [2], the “IC50, 假病毒中和试验 (Huh7细胞, 荧光素酶值)” value is approximately 9 ng/mL.
